Data on nine molecules can be found in patent EP3075390A1 (Immunomedics Inc., dated 2016).

The term Kd denotes a measure of binding affinity in units of concentration.

Test [1] addresses IGF-1R and EGP-1 together on MCF-7, DU-145 or ME-180 cells. The test can be described thus: flow cytometry (FACScan) on MCF-7 cells; structural control construct. Background: A flow cytometer gives signals particle by particle.
Test [2] addresses EGP-1 (UniProt P09758). The experiment in a line: flow cytometry (FACScan) on MCF-7 cells.
Test [3] has as its target EGP-1 (UniProt P09758). The test can be described thus: flow cytometry (FACScan) on DU-145 cells.
The target of test [4] is EGP-1 (UniProt P09758). The experiment in a line: flow cytometry (FACScan) on ME-180 cells.
Sequence of EGP-1 (P09758 27-323): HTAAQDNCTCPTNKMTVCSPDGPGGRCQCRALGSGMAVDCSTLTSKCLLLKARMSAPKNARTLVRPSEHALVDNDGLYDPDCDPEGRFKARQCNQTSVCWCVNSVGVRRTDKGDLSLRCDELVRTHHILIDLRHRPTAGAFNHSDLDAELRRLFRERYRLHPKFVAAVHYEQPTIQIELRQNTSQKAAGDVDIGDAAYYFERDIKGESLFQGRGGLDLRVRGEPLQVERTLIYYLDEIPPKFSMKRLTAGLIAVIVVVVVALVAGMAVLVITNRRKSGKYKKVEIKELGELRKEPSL
Test [5] deals with T1, recombinant human IGF-1R (rhIGF-1R) (human, UniProt P08069 31-935).
T1 construct: extracellular domain; also called immobilized recombinant human IGF-1R; IGF-1R-coated beads
T1 sequence (P08069 31-935): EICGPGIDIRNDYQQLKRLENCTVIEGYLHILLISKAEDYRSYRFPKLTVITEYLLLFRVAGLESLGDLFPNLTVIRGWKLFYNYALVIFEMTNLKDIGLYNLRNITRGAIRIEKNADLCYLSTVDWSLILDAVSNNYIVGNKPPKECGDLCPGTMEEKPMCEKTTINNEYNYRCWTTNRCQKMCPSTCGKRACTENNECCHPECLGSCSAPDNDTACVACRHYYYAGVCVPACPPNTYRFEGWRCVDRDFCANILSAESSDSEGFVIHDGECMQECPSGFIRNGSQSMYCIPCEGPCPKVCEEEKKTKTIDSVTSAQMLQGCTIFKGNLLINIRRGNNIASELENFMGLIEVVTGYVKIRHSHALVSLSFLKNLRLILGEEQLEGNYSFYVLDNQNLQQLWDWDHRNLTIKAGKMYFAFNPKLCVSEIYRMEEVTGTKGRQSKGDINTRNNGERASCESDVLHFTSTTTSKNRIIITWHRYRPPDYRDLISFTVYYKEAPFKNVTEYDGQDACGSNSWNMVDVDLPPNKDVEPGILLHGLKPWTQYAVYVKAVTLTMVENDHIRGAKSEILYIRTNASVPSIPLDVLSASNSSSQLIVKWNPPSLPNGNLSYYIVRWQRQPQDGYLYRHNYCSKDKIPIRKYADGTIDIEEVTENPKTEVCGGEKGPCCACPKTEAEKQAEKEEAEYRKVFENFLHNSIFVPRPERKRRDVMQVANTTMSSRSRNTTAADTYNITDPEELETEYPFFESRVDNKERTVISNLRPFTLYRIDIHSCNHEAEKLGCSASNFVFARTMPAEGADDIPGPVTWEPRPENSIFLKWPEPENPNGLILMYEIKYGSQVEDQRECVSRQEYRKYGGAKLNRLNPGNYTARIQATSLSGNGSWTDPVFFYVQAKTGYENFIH
The experiment in a line: labeled antibody on rhIGF-1R-coated beads; competitor: unlabeled R1.

The target in test [6] is T1, recombinant human IGF-1R (rhIGF-1R). The test can be described thus: labeled antibody on rhIGF-1R-coated beads; competitor: unlabeled 1-2.
Test [7] shares this target. The experiment in a line: labeled antibody on rhIGF-1R-coated beads; competitor: unlabeled 1H7.
For test [8] the target is unchanged. The test can be described thus: labeled antibody on rhIGF-1R-coated beads; competitor: unlabeled 2C8.
Test [9] shares this target. The experiment in a line: labeled antibody on rhIGF-1R-coated beads; competitor: unlabeled 3B7.
The target is the same in test [10]. The experiment in a line: labeled antibody on rhIGF-1R-coated beads; competitor: unlabeled cR1.
For test [11] the target is unchanged. The test can be described thus: labeled antibody on rhIGF-1R-coated beads; competitor: unlabeled hR1.
Test [12] shares this target. The test can be described thus: labeled antibody on rhIGF-1R-coated beads; competitor: unlabeled 17-69.
Test [13] shares this target. The experiment in a line: labeled antibody on rhIGF-1R-coated beads; competitor: unlabeled 24-31.
Test [14] shares this target. The experiment in a line: labeled antibody on rhIGF-1R-coated beads; competitor: unlabeled 24-57.
Test [15] shares this target. The experiment in a line: labeled antibody on rhIGF-1R-coated beads; competitor: unlabeled 24-60.
For test [16] the target is unchanged. The test can be described thus: labeled antibody on rhIGF-1R-coated beads; competitor: unlabeled αIR-3.
For test [17] the target is unchanged. The experiment in a line: labeled antibody on rhIGF-1R-coated beads; competitor: unlabeled MAB391.
The target in test [18] is IGF-1R and EGP-1 together on MCF-7, DU-145 or ME-180 cells. The experiment in a line: flow cytometry (FACScan) on MCF-7 cells; control antibody.
The target is the same in test [19]. The experiment in a line: flow cytometry (FACScan) on DU-145 cells; control antibody.
Test [20] has the same target. The test can be described thus: flow cytometry (FACScan) on ME-180 cells; control antibody.
Test [21] addresses IGF-1R on human cancer cell lines (human) (UniProt P08069). The test can be described thus: 125I-IGF-1 binding to MCF-7L cells with antibody at 100 ng/mL.
The target is the same in test [22]. The experiment in a line: 125I-IGF-1 binding to MCF-7L cells with antibody at 1000 ng/mL.
For test [23] the target is unchanged. The test can be described thus: flow cytometry (FACScan) on MCF-7 cells.
Test [24] has the same target. The test can be described thus: flow cytometry (FACScan) on DU-145 cells.
Test [25] shares this target. The test can be described thus: flow cytometry (FACScan) on ME-180 cells.
The target of test [26] is T2, recombinant human insulin receptor (rhIR) (human, UniProt P06213-2 28-944, limits assumed).
T2 construct: also called recombinant human IR
T2 sequence (P06213 other isoform, or with tags, fused parts or gaps limits assumed): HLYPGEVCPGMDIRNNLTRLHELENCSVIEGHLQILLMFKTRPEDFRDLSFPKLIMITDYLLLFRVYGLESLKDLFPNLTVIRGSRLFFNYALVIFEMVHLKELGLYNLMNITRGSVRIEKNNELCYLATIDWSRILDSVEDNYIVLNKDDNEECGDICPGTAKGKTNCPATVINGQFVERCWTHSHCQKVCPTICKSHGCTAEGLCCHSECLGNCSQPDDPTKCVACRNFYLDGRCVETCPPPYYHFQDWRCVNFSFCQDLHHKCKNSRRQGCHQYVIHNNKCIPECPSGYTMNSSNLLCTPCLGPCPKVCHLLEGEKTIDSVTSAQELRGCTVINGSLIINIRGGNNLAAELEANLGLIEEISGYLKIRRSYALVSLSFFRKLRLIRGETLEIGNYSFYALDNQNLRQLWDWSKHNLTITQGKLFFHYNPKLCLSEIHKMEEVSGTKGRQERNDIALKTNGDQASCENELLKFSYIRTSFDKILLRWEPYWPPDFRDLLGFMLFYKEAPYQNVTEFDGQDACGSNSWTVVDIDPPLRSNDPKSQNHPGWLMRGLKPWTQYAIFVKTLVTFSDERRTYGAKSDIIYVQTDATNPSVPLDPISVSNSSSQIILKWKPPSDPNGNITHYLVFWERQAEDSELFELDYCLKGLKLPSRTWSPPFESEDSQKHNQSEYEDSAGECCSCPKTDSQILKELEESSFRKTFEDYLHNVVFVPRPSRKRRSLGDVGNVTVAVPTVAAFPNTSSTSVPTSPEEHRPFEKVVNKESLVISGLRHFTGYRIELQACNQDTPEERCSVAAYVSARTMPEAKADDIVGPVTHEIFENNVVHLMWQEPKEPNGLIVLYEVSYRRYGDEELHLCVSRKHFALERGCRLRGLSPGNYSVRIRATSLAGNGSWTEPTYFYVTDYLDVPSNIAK
The experiment in a line: hybridoma screening, assay not described.

For test [27], the target named is T1, recombinant human IGF-1R (rhIGF-1R). The test can be described thus: PE-tagged MAB391 on IGF-1R-coated beads with R1 at 100 µg/mL.
The target of test [28] is T2, recombinant human insulin receptor …. The experiment in a line: ELISA on immobilized rhIR.
Test [29] concerns the target T1, recombinant human IGF-1R (rhIGF-1R). The test can be described thus: ELISA on immobilized rhIGF-1R (FIG. 3). (In general: ELISA stands for enzyme-linked immunosorbent assay.)

Sequence of IGF-1R on human cancer cell lines (human) (P08069 31-1367): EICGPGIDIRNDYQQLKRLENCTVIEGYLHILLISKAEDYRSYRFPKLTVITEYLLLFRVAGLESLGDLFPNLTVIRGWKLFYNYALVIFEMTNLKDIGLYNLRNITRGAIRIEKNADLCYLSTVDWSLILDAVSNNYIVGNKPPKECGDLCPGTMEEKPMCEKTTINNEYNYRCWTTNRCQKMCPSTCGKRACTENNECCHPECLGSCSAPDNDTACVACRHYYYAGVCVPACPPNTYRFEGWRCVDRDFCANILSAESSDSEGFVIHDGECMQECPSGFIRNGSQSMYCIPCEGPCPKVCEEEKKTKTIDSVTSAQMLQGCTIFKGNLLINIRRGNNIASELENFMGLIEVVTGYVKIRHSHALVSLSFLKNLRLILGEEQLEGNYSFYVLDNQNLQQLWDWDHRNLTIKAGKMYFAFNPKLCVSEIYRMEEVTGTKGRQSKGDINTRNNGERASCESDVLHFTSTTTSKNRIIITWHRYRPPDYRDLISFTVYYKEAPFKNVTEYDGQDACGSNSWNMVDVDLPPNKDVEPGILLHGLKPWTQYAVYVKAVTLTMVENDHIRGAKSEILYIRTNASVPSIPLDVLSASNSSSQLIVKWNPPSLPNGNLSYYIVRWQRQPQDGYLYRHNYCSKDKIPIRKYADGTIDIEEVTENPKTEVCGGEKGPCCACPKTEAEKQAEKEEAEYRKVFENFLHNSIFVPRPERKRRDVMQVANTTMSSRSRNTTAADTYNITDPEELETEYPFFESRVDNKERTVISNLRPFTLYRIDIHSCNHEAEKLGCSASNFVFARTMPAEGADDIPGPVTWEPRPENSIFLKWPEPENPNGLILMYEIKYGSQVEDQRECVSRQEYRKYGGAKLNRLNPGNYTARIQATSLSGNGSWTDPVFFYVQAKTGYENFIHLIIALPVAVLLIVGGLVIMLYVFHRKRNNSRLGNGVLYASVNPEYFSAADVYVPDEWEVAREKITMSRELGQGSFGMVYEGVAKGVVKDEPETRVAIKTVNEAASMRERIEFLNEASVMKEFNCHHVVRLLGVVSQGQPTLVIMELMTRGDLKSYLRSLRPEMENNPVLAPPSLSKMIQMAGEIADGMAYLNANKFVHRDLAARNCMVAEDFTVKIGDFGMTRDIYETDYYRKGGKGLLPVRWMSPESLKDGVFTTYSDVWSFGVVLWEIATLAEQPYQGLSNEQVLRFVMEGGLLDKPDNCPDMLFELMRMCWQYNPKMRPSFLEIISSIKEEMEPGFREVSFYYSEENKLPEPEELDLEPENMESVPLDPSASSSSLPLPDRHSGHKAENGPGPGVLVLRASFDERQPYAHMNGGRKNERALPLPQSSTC

For the molecule “22-20 (DNL construct of hLL2 IgG-AD2 and hA20 Fab-DDD2) (bispecific antibody)”, in test [1], the % Positive was 3.1% and the MFI was determined as 2.11.
Take “Hex-hRS7 (hexavalent DNL construct of hRS7 IgG-AD2 and hRS7 Fab-DDD2)”: the % Positive was found to be 99.9% in test [2], 93.7% in test [3] and 100% in [4]. Besides, the MFI in [2] stood at 35.7; in [3], 17; in test [4], 59.6.
anti-IGF-1R antibody 24-60: the % binding of labeled antibody in [5] turned out to be 0%; in test [6] it was 100%; in test [7], 100%; in test [8] it was 88%; in [9] it was 79%; in [10], 0%. Besides, the % binding of labeled antibody in test [11] was determined as 0%; in [12] it was 82%; in [13] it was 18%; in test [14], 88%; in test [15], 0%; in test [16], 21%. Further, in [17], the % binding of labeled antibody came to 0%.
As for anti-IGF-1R antibody αIR-3, the % binding of labeled antibody in [5] is 86%; in test [6], 95%; in test [7] it was 115%; in [8] it was 97%; in [9], 76%; in [10], 97%. Moreover, the % binding of labeled antibody in [11] came out at 107%; in [12] it was 89%; in test [13], 52%; in test [14] it was 87%; in test [15], 0%; in [16], 0%. Besides, in test [17], the % binding of labeled antibody worked out at 0%.
Take human IgG (control) (antibody): the % Positive in test [18] was 2.34%; in [19], 1.44%; in test [20], 1.37%. In addition, the MFI in [18] was determined as 1.84; in [19], 2.21; in test [20], 1.8.
Take “mouse anti-IGF-1R monoclonal antibody MAB391”: the values for the % binding of 125I-IGF-1 in [21] and in test [22] were 54% and 38%, respectively. Further, the % binding of labeled antibody in [5] is 40%; in [17], 0%.

B1: humanized R1 antibody (hR1) (antibody, V domains shown)
VH: QVQLQESGGGVVQPGRSLRLSCSASGFTFSDYYMYWVRQAPGKGLEWVAYITNYGGSTYYPDTVKGRFTISRDNAKNTLFLQMDSLRPEDTGVYFCARQSNYDYDGWFAYWGQGTPVTVSS
VL: DIQLTQSPSSLSASVGDRVTITCKASQEVGTAVAWYQQKPGKAPKLLIYWASTRHTGVPSRFSGSGSGTDFTFTISSLQPEDIATYFCQQYSNYPLTFGQGTKVEIKR
Consider B1, for which the figures for the % Positive in test [23], in test [24] and in test [25] were 89.2%, 30.4% and 10.7%, respectively. Besides, the MFI came out at 9.93 in test [23], 5.33 in test [24] and 3.65 in test [25]. Besides, the % binding of labeled antibody came to 0% in test [5]; 100% in test [6]; 131% in test [7]; 100% in [8]; 100% in [9]; 0% in test [10]. Besides, the % binding of labeled antibody came to 0% in test [11]; 100% in test [12]; 100% in test [13]; 100% in test [14]; 71% in test [15]; 136% in test [16]. Besides, in [17], the % binding of labeled antibody came to 121%.

B2: murine anti-IGF-1R antibody R1 (antibody, V domains shown)
VH: EVKLVESGGGLVQPGGSLKLSCATSGFTFSDYYMYWVRQTPEKRLEWVAYITNYGGSTYYPDTVKGRFTISRDNAKNTLYLQMSRLRSEDTAMYFCARQSNYDYDGWFAYWGQGTTVTVSS
VL: DIVMTQSHKFMSTSVGDRVSITCKASQEVGTAVAWYQQKPGQSPKLLIYWASTRHTGVPDRFTGSGSGTDFTLTISNVQSEDLADYFCQQYSNYPLTFGAGAKLELKR
notes: also called ML04R1; murine R1
As for B2, in test [26], the binding result was “no binding”. For the same molecule, the % binding of 125I-IGF-1 amounted to 71% in [21] and 58% in test [22]. For the same molecule, the % inhibition of the binding of PE-tagged MAB391 in [27] lay in the range of 50 to 60%. Moreover, the % binding of labeled antibody in test [5] stood at 0%; in [7] it was 150%; in [9] it was 117%; in test [10] it was 0%; in test [11], 0%; in test [15], 43%. Moreover, in [16], the % binding of labeled antibody was 143%.

B3: chimeric R1 antibody (cR1) (antibody, V domains shown)
VH: B2 VH
VL: B2 VL
notes: Mouse-human chimeric mAb of R1, R1 VH and VK in the pdHL2 vector with human constant regions; also called clones 709.2D2 and 710.2G2
Consider B3, for which the binding result in [28] is on record as “no binding”. In addition, the Kd in test [29] was approximately 0.1 nM.
